{"source": "patent US10676765B2", "about": "“Methods for producing 3-hydroxy-3-methylbutyric acid” (Global Bioenergies, priority 2015, dated 2020)", "molecules": {"B1": {"name": "phosphate butyryltransferase from Enterococcus faecalis: phosphate butyryltransferase (EC 2.3.1.19) from Enterococcus faecalis MTUP9, Uniprot A0A038BNC2 (protein, listed as Enterococcus faecalis)", "chain": "MITVSIAGGSQPEILQLVKKALKEAEQPLQFIVFDTNENLDTENLWKYVHCSDEATVAQEAVSLVATGQAQILLKGIIQTHTLLKEMLKSEHQLKNKPILSHVAMVELPAGKTFLLTDCAMNIAPTQATLIEIVENAKEVAQKLGLHHPKIALLSAAENFNPKMPSSVLAKEVTAHFNGQQEATVFGPLSLDLATSEEAVAHKRYSGPIMGDADILVVPTIDVGNCLYKSLTLFGHAKVGGTIVGTKVPVVLTSRSDSTESKFHSLRFAMRQV", "modifications": "MTUP9", "notes": "phosphate butyryltransferase (EC 2.3.1.19) from Enterococcus faecalis MTUP9, Uniprot A0A038BNC2"}}, "key": {"[1]": {"assay": "Conversion of 3-hydroxyisovaleryl-CoA and ADP into 3-hydroxyisovaleric acid and ATP, phosphate butyryltransferase from Enterococcus faecalis with butyrate kinases", "type": "biochemical", "settings": "4 mM 3-hydroxyisovaleryl-CoA, 4 mM ADP, 0.2 mg/ml each enzyme, 20 min, 30° C.", "procedure": "(§1) The enzymatic assays were conducted in a total reaction volume of 0.2 ml.\n(§2) The standard reaction mixture contained:\n(§3) 50 mM potassium phosphate buffer pH 7.5\n4 mM 3-hydroxyisovaleryl-CoA\n(§4) 0.2 mg/ml of purified phosphate butyryltransferase from Enterococcus faecalis\n(§5) 0.2 mg/ml of purified butyrate kinase from Lactobacillus casei or Geobacillus sp.\nA series of controls were performed in parallel (Assays C-H Table 5).\nThe assays were then incubated for 20 min with shaking at 30° C.\n(§6) After an incubation period, the reactions were stopped by heating the reaction medium 4 min at 90° C. The samples were centrifuged, filtered through a 0.22 μm filter and the clarified supernatants were transferred into a clean vial for further analysis. The consumption of ADP and 3-hydroxyisovaleryl-CoA, and the formation of ATP and 3-hydroxyisovaleric acid and free coenzyme A (CoA-SH) were followed by HPLC analysis according to the methods described in Example 10."}, "[2]": {"assay": "Conversion of 3-methylcrotonyl-CoA and ADP into 3-methylcrotonic acid and ATP, phosphate butyryltransferase from Enterococcus faecalis with butyrate kinases", "type": "biochemical", "settings": "4 mM 3-methylcrotonyl-CoA, 4 mM ADP, 0.2 mg/ml each enzyme, 20 min, 30° C.", "procedure": "as §1, §2, §3\n4 mM 3-methylcrotonyl-CoA\nas §4, §5\nA series of controls was performed in parallel (Assays C-H Table 10).\nAssays were then incubated for 20 min with shaking at 30° C.\nas §6, with “3-methylcrotonyl-CoA” for “3-hydroxyisovaleryl-CoA,”, “3-methylcrotonic” for “3-hydroxyisovaleric”, “10 and Example 12.” for “10.”"}}, "data": [{"molecule": "B1", "values": [{"measurement": "production of 3-hydroxyisovaleric acid and ATP", "setting": "[1]", "value": "significant production of 3-hydroxyisovaleric acid, without simultaneous generation of ATP"}, {"measurement": "production of 3-methylcrotonic acid and ATP", "setting": "[2]", "value": "significant production of 3-methylcrotonic acid without simultaneous generation of ATP"}]}]}
